In patent US20260151519A1 (AKTIS ONCOLOGY, published 2026):
Bridges are numbered along the chain shown (N, C = ends). Primed or numbered codes have the meaning given here. Where no end group is shown, it is not given here. The star is where a group is joined. FITC = O=C1OC2(c3ccc(O)cc3Oc3cc(O)ccc32)c2ccc(NC(=S)*)cc21; DTPA = O=C(O)CN(CCN(CC(=O)O)CC(=O)O)CCN(CC(=O)O)CC(=O)*; Biotin = O=C1N[C@H]2[C@H](CS[C@H]2CCCCC(=O)*)N1; PEG4″ = 4(ethylene glycol)

T1: Human Nectin-4 (human, UniProt Q96NY8 32-349, limits assumed)
T1 construct: Protein immobilised on the SPR chip; also called target protein
T1 sequence: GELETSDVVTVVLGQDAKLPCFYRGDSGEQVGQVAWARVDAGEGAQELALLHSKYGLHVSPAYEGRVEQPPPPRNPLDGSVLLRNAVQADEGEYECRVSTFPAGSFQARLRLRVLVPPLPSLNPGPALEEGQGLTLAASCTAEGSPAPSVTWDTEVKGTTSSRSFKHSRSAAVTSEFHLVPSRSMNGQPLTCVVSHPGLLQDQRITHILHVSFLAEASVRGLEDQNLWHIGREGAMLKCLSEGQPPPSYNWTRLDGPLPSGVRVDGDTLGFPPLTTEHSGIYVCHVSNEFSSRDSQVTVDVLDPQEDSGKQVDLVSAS


Molecular target: T1, Human Nectin-4
Assay: Table 2B (DELFIA or SPR)

Row | Binder | Kd
1 | {Biotin-PEG4″}-CDYDEQFFTALKRLRGADICEYIQASFQYLPGLCIEEILDNLGCS-OH (designed binder, disulfide 1-34, 20-44) [C207] | 1.08 nM
2 | {Biotin-PEG4″}-CDYDEQFFTALKRLRGADICEYIQASFQYLPGQCIEEILDNLGCS (designed binder, disulfide 1-34, 20-44) [C209] | 1.25 nM
3 | {Biotin-PEG4″}-CDYDEQFFTALKRLRGGDICEYIQASFQYLPGECIEEILDNLGCS (designed binder, disulfide 1-34, 20-44) [C210] | 1.54 nM
4 | {Biotin-PEG4″}-CDYDEQFFTALKRLRGGDICEYIQASFQYLPGQCIEEILDNLGCS (designed binder, disulfide 1-34, 20-44) [C211] | 1.19 nM
5 | Ac-CEYDEEFFAGLKRLRGGDICYYIKKKFKKVPDLCIEEILDKLGC-OH (designed binder, disulfide 1-34, 20-44) [C16] | 4.34 nM
6 | {Biotin-PEG4″}-CEDDEEFFADLKRLRGGDICYYIKLKFDKVPDLCIKEILDKLGC (designed binder, disulfide 1-34, 20-44) [C2] | 58.9 nM
7 | H-CEYDEEFFAGLKRLRGGDICYYIKKKFDKVPDLCIKEILDKLGC-OH (designed binder, disulfide 1-34, 20-44) [C3] | 9.68 nM
8 | H-CEDDFQFFADLKRLRGGDICYYIRLKFDKVPDLCIKEILDKLGC-OH (designed binder, disulfide 1-34, 20-44) [C4] | 14.4 nM
9 | Ac-CEYDEEFFAGLKRLRGGDICYYIKKKFDKVPDLCIKEILDKLGC-OH (designed binder, disulfide 1-34, 20-44) [C5] | 18.9 nM
10 | Ac-CEDDFQFFADLKRLRGGDICYYIRLKFDKVPDLCIKEILDKLGC-OH (designed binder, disulfide 1-34, 20-44) [C6] | 17.1 nM
11 | H-CEYDEEFFAGLKRLRGGDICYYIKKKFDKVPDLCIEEILDKLGC-OH (designed binder, disulfide 1-34, 20-44) [C7] | 5.5 nM
12 | {FITC}-CEYDEEFFAGLKRLRGGDICYYIKKKFDKVPDLCIEEILDKLGC-OH (designed binder, disulfide 1-34, 20-44) [C10] | 37.6 nM
13 | {DTPA-PEG4″}-CEYDEEFFAGLKRLRGGDICYYIKKKFDKVPDLCIEEILDKLGC-OH (designed binder, disulfide 1-34, 20-44) [C11] | 6.86 nM
14 | Ac-CEYDEEFFNGLKRLRGGDICYYIKKKFDKVPDLCIEEILDKLGC-OH (designed binder, disulfide 1-34, 20-44) [C13] | 6.01 nM
15 | Ac-CEYDEEFFAGLKRLRRGDICYYIKKKFDKVPDLCIEEILDKLGC (designed binder, disulfide 1-34, 20-44) [C14] | 14.1 nM
16 | Ac-CEYDEEFFNGLKRLRRGDICYYIKKKFDKVPDLCIEEILDKLGC-OH (designed binder, disulfide 1-34, 20-44) [C15] | 12.2 nM
17 | Ac-CEYDEEFFNGLKRLRGGDICYYIKKKFKKVPDLCIEEILDKLGC-OH (designed binder, disulfide 1-34, 20-44) [C17] | 4.16 nM
18 | Ac-CEYDEEFFNGLHRLRRGDICYYIKKKFKKVPDLCIEEILDKLGC-OH (designed binder, disulfide 1-34, 20-44) [C18] | 38.2 nM
